B1: humanized antibody hu08 (antibody, V domains shown)
VH: EVQLVESGGGLVQPGGSLRLSCAASGFTFSRNGMSWVRQAPGKGLEWVATVSSGGSYIYYADSVKGRFTISRDNAKNSLYLQMNSLRAEDTAVYYCARQGTTALATRFFDVWGQGTLVTVSS
VL: DIQMTQSPSSLSASVGDRVTITCKASQDVGTAVAWYQQKPGKAPKLLIYSASYRSTGVPSRFSGSGSGTDFTLTISSLQPEDFATYYCQHHYSAPWTFGGGTKVEIKT
notes: Unconjugated antibody; also called hu08v1.0/1.0; IL13Ra2-AB08-v1010-hG1
B2: IL13Ra2-AB08-v1010-hG1-(C)_mcValCitPABC-#54 (antibody, V domains shown)
VH: B1 VH
VL: B1 VL
modifications: drug-linker mcValCitPABC-#54 on cysteine (C), positions not given; drug-linker mcValCitPABC-#54 on cysteine (C), positions not given; DAR 3.2 per antibody
B3: IL13Ra2-AB08-v1010-hG1-(C)_Mal(H2O)Peg6C2-0#118 (antibody, V domains shown)
VH: B1 VH
VL: B1 VL
modifications: drug-linker Mal(H2O)Peg6C2-0#118 on cysteine (C), positions not given; drug-linker Mal(H2O)Peg6C2-0#118 on cysteine (C), positions not given; DAR 2.9 per antibody
B4: IL13Ra2-AB08-v1010-hG1-(C)_mc-#117 (antibody, V domains shown)
VH: B1 VH
VL: B1 VL
modifications: drug-linker mc-#117 on cysteine (C), positions not given; drug-linker mc-#117 on cysteine (C), positions not given; DAR 3.3 per antibody
B5: IL13Ra2-AB08-v1010-hG1-(C)_mcValCitPABC-#226 (antibody, V domains shown)
VH: B1 VH
VL: B1 VL
modifications: drug-linker mcValCitPABC-#226 on cysteine (C), positions not given; drug-linker mcValCitPABC-#226 on cysteine (C), positions not given; DAR 3 per antibody
B6: IL13Ra2-AB08-v1010-hG1-(C)_mcValCitPABC-#112 (antibody, V domains shown)
VH: B1 VH
VL: B1 VL
modifications: drug-linker mcValCitPABC-#112 on cysteine (C), positions not given; drug-linker mcValCitPABC-#112 on cysteine (C), positions not given; DAR 4 per antibody
B7: IL13Ra2-AB08-v1010-hG1-(C)_mc-#115 (antibody, V domains shown)
VH: B1 VH
VL: B1 VL
modifications: drug-linker mc-#115 on cysteine (C), positions not given; drug-linker mc-#115 on cysteine (C), positions not given; DAR 4.3 per antibody
B8: IL13Ra2-AB08-v1010-hG1-(C)_mc-0#118 (antibody, V domains shown)
VH: B1 VH
VL: B1 VL
modifications: drug-linker mc-0#118 on cysteine (C), positions not given; drug-linker mc-0#118 on cysteine (C), positions not given; DAR 3.2 per antibody
B9: IL13Ra2-AB08-v1010-hG1-(C)_MalPeg6C2-#117 (antibody, V domains shown)
VH: B1 VH
VL: B1 VL
modifications: drug-linker MalPeg6C2-#117 on cysteine (C), positions not given; drug-linker MalPeg6C2-#117 on cysteine (C), positions not given; DAR 3.3 per antibody
B10: Notch-28-v1010-hG1-(C)_mcValCitPABC-#54 (antibody, human IgG1, kappa, V domains shown)
VH: EVQLVESGGGLVQPGGSLRLSCAASGFTFRDYGMTWVRQAPGKGLEWVAYISSGSNYIYYAEAVKGRFTISRDNAKNSLYLQMNSLRAEDTAVYYCARRGPFVLDAWGQGTLVTVSS
VL: DIQMTQSPSSLSASVGDRVTITCKASQSINRYLHWYQQKPGKAPKLLIYNANGLQTGVPSRFSGSGSGTDFTLTISSLQPEDFATYYCLQHNTWPDTFGGGTKVEIKR
modifications: drug-linker mcValCitPABC-#54 on cysteine (C), positions not given; drug-linker mcValCitPABC-#54 on cysteine (C), positions not given; DAR 3.9 per antibody
B11: Notch-75-v1913-hG1-(C)_mcValCitPABC-#54 (antibody, human IgG1, kappa, V domains shown)
VH: EVQLVESGGGLVQPGGSLRLSCAASGYAFTDYWMTWVRQAPGKGLEWVAEISPNSGGTNFNEKFKGRFTISVDNAKNSLYLQMNSLRAEDTAVYYCARGEIRYNWFAYWGQGTLVTVSS
VL: DIQMTQSPSSLSASVGDRVTITCKASQNVGNNIAWYQQKPGKAPKLLIYYASNRYTGVPSRFSGSGYGTDFTLTISSLQPEDFATYYCQRLYNSPFTFGGGTKVEIKR
modifications: drug-linker mcValCitPABC-#54 on cysteine (C), positions not given; drug-linker mcValCitPABC-#54 on cysteine (C), positions not given; DAR 3.8 per antibody
B12: Notch-28-v1010-hG1-(C)_mcValCitPABC-#112 (antibody, human IgG1, kappa, V domains shown)
VH: B10 VH
VL: B10 VL
modifications: drug-linker mcValCitPABC-#112 on cysteine (C), positions not given; drug-linker mcValCitPABC-#112 on cysteine (C), positions not given; DAR 3.9 per antibody
B13: Notch-75-v1913-hG1-(C)_mcValCitPABC-#112 (antibody, human IgG1, kappa, V domains shown)
VH: B11 VH
VL: B11 VL
modifications: drug-linker mcValCitPABC-#112 on cysteine (C), positions not given; drug-linker mcValCitPABC-#112 on cysteine (C), positions not given; DAR 4.2 per antibody

molecular target: T1, IL-13Rα2 receptor (human, UniProt Q14627 27-380); experiment: statement in the example section; no binding assay described
T1 construct: whole, on cells; also called IL-13Rα2 antigen; IL13Ra2
T1 sequence (looked up): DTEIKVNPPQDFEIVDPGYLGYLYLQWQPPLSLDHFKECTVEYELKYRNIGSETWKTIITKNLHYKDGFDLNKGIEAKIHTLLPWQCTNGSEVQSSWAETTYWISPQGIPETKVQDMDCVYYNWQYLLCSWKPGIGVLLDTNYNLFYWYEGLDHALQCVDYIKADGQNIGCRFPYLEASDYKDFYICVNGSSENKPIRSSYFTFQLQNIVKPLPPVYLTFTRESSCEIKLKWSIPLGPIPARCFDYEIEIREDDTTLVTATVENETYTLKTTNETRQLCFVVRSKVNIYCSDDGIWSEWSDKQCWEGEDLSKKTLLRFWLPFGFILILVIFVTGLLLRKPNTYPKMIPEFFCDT

Binder	binding result
B1	binds

molecular target: T1, IL-13Rα2 receptor; experiment: cell-based or functional assay

Binder	IC50 (ng Ab/mL), viability of A375 cells	IC50 (ng Ab/mL), viability of PC3MM2 cells
B2	3.8 ng Ab/mL	2.5 ng Ab/mL
B3	4.9 ng Ab/mL	2.9 ng Ab/mL
B4	2.4 ng Ab/mL	1.1 ng Ab/mL
B5	2.9 ng Ab/mL	1.5 ng Ab/mL
B6	2.2 ng Ab/mL	1.2 ng Ab/mL
B7	2.2 ng Ab/mL	1.2 ng Ab/mL
B8	2.1 ng Ab/mL	1.3 ng Ab/mL
B9	3.4 ng Ab/mL	3.5 ng Ab/mL

molecular target: Notch receptor (human); experiment: cell-based or functional assay

Binder	IC50 (ng Ab/mL), MTS viability of HCC2429 cells (repeat 1)	IC50 (ng Ab/mL), MTS viability of HCC2429 cells (repeat 2)	IC50 (ng Ab/mL), MTS viability of MDA-MB-468/hNotch cells (repeat 1)	IC50 (ng Ab/mL), MTS viability of MDA-MB-468/hNotch cells (repeat 2)	IC50 (ng Ab/mL), MTS viability of MDA-MB-468 cells	IC50 (ng Ab/mL), MTS viability of OVCAR3 cells	IC50 (ng Ab/mL), MTS viability of U2OS/hNotch cells
B10	473 ng Ab/mL	2940 ng Ab/mL	3.2 ng Ab/mL	3 ng Ab/mL	6540 ng Ab/mL	306 ng Ab/mL	1330 ng Ab/mL
B11	611 ng Ab/mL	3300 ng Ab/mL	37 ng Ab/mL	36 ng Ab/mL	7000 ng Ab/mL	515 ng Ab/mL	523 ng Ab/mL
B12	148 ng Ab/mL	2050 ng Ab/mL	1.3 ng Ab/mL	3 ng Ab/mL	–	17 ng Ab/mL	–
B13	214 ng Ab/mL	630 ng Ab/mL	26 ng Ab/mL	25 ng Ab/mL	–	254 ng Ab/mL	–
